# Test results published in the supplement of paper PMC9876800.
# System: peptide library, one residue held at a place counted from the S/T acceptor
# Assay: relative phosphorylation of the sub-library (ratio to the mean residue at this position); human; higher = residue favoured
# Details: R fixed; at +1
# Outline: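 Relative sub-library phosphorylation is the ratio of each sub-library's signal to the mean residue at that position. The signal came from phosphorimaging of spots on streptavidin membranes, quantified by densitometry, after purified recombinant kinases reacted with biotinylated degenerate peptide sub-libraries in 384-well plates. Reactions held 50 μM peptide and 50 μM ATP spiked with γ-32P-ATP for 90 min under kinase-specific conditions.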
# Sequence of MAP4K3, construct: aa1-380 (Q8IVH8 1-380, looked up): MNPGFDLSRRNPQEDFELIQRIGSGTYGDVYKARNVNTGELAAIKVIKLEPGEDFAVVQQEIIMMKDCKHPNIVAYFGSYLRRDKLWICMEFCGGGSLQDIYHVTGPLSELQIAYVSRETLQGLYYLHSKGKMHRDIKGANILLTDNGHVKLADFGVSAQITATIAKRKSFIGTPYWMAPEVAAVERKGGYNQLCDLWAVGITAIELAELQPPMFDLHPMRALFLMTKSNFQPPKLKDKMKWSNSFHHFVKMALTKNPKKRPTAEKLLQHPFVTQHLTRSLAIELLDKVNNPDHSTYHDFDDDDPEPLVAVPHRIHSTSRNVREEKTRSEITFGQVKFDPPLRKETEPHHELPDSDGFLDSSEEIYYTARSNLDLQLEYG
# Sequence of MAP3K10, construct: aa1-449 (Q02779 1-449, looked up): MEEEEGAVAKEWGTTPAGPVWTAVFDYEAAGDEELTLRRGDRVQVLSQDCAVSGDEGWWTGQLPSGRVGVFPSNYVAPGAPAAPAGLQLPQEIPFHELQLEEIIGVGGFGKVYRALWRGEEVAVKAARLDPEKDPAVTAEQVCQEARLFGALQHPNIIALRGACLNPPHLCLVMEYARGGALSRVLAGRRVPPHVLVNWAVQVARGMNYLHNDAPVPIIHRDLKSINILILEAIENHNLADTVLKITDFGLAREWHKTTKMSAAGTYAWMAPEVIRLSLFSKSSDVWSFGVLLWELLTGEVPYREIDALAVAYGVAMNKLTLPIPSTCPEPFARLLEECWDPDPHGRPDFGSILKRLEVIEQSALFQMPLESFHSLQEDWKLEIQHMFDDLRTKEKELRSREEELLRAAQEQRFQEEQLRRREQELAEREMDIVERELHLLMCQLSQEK
# Sequence of CAMK1, construct: Full length (Q14012 whole entry, looked up): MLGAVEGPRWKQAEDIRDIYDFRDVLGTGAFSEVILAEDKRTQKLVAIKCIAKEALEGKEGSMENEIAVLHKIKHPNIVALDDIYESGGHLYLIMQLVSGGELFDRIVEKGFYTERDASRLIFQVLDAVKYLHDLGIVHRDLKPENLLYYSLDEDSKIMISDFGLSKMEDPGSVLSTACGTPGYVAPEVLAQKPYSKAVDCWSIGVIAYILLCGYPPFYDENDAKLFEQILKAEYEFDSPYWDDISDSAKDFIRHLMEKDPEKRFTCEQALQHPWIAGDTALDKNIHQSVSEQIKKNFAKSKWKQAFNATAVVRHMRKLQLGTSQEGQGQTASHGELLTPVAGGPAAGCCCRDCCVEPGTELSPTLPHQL
# Sequence of TTBK1, construct: Full length (Q5TCY1 whole entry, looked up): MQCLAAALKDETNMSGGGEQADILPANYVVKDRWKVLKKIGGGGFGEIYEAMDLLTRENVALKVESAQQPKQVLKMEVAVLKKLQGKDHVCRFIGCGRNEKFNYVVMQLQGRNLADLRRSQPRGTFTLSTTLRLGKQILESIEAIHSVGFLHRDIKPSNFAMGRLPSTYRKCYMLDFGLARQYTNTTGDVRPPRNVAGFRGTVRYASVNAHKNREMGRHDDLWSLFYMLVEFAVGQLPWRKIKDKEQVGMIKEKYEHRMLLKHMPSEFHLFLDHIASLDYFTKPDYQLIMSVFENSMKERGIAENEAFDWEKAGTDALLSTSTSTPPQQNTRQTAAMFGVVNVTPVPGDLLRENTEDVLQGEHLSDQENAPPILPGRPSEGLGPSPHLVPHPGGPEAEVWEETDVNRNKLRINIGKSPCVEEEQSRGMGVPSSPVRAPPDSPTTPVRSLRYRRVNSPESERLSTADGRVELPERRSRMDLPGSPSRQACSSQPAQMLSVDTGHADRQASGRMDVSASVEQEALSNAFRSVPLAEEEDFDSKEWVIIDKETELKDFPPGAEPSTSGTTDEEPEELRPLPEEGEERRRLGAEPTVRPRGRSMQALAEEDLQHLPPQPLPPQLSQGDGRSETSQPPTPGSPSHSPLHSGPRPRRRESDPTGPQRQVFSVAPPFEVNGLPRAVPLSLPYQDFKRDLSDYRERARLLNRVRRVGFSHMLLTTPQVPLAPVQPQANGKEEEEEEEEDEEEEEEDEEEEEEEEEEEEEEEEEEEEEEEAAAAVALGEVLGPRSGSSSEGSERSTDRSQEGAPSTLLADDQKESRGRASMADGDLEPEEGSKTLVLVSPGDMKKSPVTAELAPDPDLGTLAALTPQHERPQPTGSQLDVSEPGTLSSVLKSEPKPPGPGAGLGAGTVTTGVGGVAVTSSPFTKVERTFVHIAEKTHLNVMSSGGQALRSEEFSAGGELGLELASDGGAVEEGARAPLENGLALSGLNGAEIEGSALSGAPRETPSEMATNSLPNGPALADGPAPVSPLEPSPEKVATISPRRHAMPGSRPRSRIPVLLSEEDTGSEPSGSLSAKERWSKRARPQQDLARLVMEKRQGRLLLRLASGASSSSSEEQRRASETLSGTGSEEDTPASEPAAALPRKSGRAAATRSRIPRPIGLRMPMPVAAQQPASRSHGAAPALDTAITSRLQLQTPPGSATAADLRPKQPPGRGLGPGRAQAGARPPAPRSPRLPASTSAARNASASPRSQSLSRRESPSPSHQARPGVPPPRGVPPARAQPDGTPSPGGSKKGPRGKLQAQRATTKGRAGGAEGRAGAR
# Sequence of MOK, construct: aa1-343 (Q9UQ07 1-343, looked up): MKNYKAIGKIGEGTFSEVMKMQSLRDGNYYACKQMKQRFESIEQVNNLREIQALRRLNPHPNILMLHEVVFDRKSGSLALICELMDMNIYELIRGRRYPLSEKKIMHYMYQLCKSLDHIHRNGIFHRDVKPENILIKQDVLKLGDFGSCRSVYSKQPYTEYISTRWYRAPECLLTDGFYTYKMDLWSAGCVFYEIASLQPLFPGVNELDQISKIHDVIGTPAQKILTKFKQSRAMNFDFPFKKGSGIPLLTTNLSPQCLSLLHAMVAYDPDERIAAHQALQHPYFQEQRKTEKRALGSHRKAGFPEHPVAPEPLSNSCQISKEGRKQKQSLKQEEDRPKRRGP
# Sequence of CHEK2, construct: Full length (O96017 whole entry, looked up): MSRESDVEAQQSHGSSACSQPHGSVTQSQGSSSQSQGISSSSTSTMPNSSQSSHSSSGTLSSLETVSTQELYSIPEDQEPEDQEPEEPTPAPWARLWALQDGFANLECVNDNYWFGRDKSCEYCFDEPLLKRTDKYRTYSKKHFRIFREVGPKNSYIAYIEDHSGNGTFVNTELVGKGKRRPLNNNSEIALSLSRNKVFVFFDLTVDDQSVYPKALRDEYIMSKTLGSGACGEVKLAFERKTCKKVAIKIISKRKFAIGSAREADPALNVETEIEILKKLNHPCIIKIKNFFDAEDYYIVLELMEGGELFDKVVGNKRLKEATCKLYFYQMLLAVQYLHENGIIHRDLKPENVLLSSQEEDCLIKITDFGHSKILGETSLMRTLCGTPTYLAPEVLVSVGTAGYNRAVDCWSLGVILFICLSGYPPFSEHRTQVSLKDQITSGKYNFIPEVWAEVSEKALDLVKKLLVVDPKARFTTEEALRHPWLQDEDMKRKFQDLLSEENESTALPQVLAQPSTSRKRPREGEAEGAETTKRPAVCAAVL
# Sequence of EIF2AK1, construct: Full length (Q9BQI3 whole entry, looked up): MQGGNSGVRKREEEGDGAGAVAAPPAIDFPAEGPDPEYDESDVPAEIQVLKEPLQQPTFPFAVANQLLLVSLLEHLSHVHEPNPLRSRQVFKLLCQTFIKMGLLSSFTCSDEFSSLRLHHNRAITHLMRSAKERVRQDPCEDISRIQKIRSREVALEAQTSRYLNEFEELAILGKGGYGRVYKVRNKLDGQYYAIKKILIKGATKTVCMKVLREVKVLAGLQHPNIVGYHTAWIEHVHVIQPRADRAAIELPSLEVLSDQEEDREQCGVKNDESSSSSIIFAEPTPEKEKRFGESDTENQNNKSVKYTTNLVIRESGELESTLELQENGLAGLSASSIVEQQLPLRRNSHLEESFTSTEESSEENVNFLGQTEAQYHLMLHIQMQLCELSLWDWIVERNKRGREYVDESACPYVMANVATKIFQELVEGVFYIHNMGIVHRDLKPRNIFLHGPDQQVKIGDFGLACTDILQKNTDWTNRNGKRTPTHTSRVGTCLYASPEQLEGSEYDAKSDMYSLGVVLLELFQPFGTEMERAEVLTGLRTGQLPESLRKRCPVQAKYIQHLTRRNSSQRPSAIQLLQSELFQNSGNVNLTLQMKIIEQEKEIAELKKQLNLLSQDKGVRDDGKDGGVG
row,Substance,relative phosphorylation
1,"CAMK1, construct: Full length (from UniProt Q14012)",1.96
2,"MAP3K10, construct: aa1-449 (from UniProt Q02779)",1.35
3,"EIF2AK1, construct: Full length (from UniProt Q9BQI3)",1.79
4,"PKN3, construct: Full length (from UniProt Q6P5Z2)",0.74

# Same assay, conditions: R fixed; at +2
row,Substance,relative phosphorylation
1,"MOK, construct: aa1-343 (from UniProt Q9UQ07)",1.58
2,"TTBK1, construct: Full length (from UniProt Q5TCY1)",1.42
3,"CHEK2, construct: Full length (from UniProt O96017)",1.97
4,"MAP4K3, construct: aa1-380 (from UniProt Q8IVH8)",3.22
5,"CAMK1, construct: Full length (from UniProt Q14012)",1.42
6,"MAP3K10, construct: aa1-449 (from UniProt Q02779)",2.26
7,"EIF2AK1, construct: Full length (from UniProt Q9BQI3)",1.99
8,"PKN3, construct: Full length (from UniProt Q6P5Z2)",3.4

# Same assay, conditions: R fixed; at +3
row,Substance,relative phosphorylation
1,"MOK, construct: aa1-343 (from UniProt Q9UQ07)",1.53
2,"TTBK1, construct: Full length (from UniProt Q5TCY1)",0.641
3,"CHEK2, construct: Full length (from UniProt O96017)",1.53
4,"MAP4K3, construct: aa1-380 (from UniProt Q8IVH8)",4.5
5,"CAMK1, construct: Full length (from UniProt Q14012)",0.961
6,"MAP3K10, construct: aa1-449 (from UniProt Q02779)",0.966
7,"EIF2AK1, construct: Full length (from UniProt Q9BQI3)",2.1
8,"PKN3, construct: Full length (from UniProt Q6P5Z2)",1.4

# Same assay, conditions: R fixed; at +4
row,Substance,relative phosphorylation
1,"MOK, construct: aa1-343 (from UniProt Q9UQ07)",1.74
2,"TTBK1, construct: Full length (from UniProt Q5TCY1)",1.41
3,"CHEK2, construct: Full length (from UniProt O96017)",1.65
4,"MAP4K3, construct: aa1-380 (from UniProt Q8IVH8)",1.67
5,"CAMK1, construct: Full length (from UniProt Q14012)",0.679
6,"MAP3K10, construct: aa1-449 (from UniProt Q02779)",0.912
7,"EIF2AK1, construct: Full length (from UniProt Q9BQI3)",1.9
8,"PKN3, construct: Full length (from UniProt Q6P5Z2)",1.02

# Same assay, conditions: R fixed; at -1
row,Substance,relative phosphorylation
1,"MOK, construct: aa1-343 (from UniProt Q9UQ07)",2.2
2,"TTBK1, construct: Full length (from UniProt Q5TCY1)",1.23
3,"CHEK2, construct: Full length (from UniProt O96017)",1.63
4,"MAP4K3, construct: aa1-380 (from UniProt Q8IVH8)",1.92
5,"CAMK1, construct: Full length (from UniProt Q14012)",1.59
6,"MAP3K10, construct: aa1-449 (from UniProt Q02779)",1.09
7,"EIF2AK1, construct: Full length (from UniProt Q9BQI3)",1.07
8,"PKN3, construct: Full length (from UniProt Q6P5Z2)",1.12

# Same assay, conditions: R fixed; at -2
row,Substance,relative phosphorylation
1,"MOK, construct: aa1-343 (from UniProt Q9UQ07)",1.81
2,"TTBK1, construct: Full length (from UniProt Q5TCY1)",0.934
3,"CHEK2, construct: Full length (from UniProt O96017)",2.92
4,"MAP4K3, construct: aa1-380 (from UniProt Q8IVH8)",1.5
5,"CAMK1, construct: Full length (from UniProt Q14012)",4.18
6,"MAP3K10, construct: aa1-449 (from UniProt Q02779)",0.569
7,"EIF2AK1, construct: Full length (from UniProt Q9BQI3)",0.73
8,"PKN3, construct: Full length (from UniProt Q6P5Z2)",2.24

# Same assay, conditions: R fixed; at -3
row,Substance,relative phosphorylation
1,"MOK, construct: aa1-343 (from UniProt Q9UQ07)",7.98
2,"TTBK1, construct: Full length (from UniProt Q5TCY1)",0.888
3,"CHEK2, construct: Full length (from UniProt O96017)",10.5
4,"MAP4K3, construct: aa1-380 (from UniProt Q8IVH8)",2.13
5,"CAMK1, construct: Full length (from UniProt Q14012)",9.87
6,"MAP3K10, construct: aa1-449 (from UniProt Q02779)",0.762
7,"EIF2AK1, construct: Full length (from UniProt Q9BQI3)",0.958
8,"PKN3, construct: Full length (from UniProt Q6P5Z2)",5.22

# Same assay, conditions: R fixed; at -4
row,Substance,relative phosphorylation
1,"MOK, construct: aa1-343 (from UniProt Q9UQ07)",4.34
2,"TTBK1, construct: Full length (from UniProt Q5TCY1)",1.06
3,"CHEK2, construct: Full length (from UniProt O96017)",2.23
4,"MAP4K3, construct: aa1-380 (from UniProt Q8IVH8)",1.48
5,"CAMK1, construct: Full length (from UniProt Q14012)",2.11
6,"MAP3K10, construct: aa1-449 (from UniProt Q02779)",0.957
7,"EIF2AK1, construct: Full length (from UniProt Q9BQI3)",1.03
8,"PKN3, construct: Full length (from UniProt Q6P5Z2)",1.4

# Same assay, conditions: R fixed; at -5
row,Substance,relative phosphorylation
1,"MOK, construct: aa1-343 (from UniProt Q9UQ07)",2.3
2,"TTBK1, construct: Full length (from UniProt Q5TCY1)",1.22
3,"CHEK2, construct: Full length (from UniProt O96017)",1.52
4,"MAP4K3, construct: aa1-380 (from UniProt Q8IVH8)",1.45
5,"CAMK1, construct: Full length (from UniProt Q14012)",1.8
6,"MAP3K10, construct: aa1-449 (from UniProt Q02779)",1
7,"EIF2AK1, construct: Full length (from UniProt Q9BQI3)",1.16
8,"PKN3, construct: Full length (from UniProt Q6P5Z2)",1.5

# Same assay, conditions: V fixed; at +1
row,Substance,relative phosphorylation
1,"MOK, construct: aa1-343 (from UniProt Q9UQ07)",0.515
2,"TTBK1, construct: Full length (from UniProt Q5TCY1)",1.84
3,"CHEK2, construct: Full length (from UniProt O96017)",1.04
4,"MAP4K3, construct: aa1-380 (from UniProt Q8IVH8)",0.672
5,"CAMK1, construct: Full length (from UniProt Q14012)",0.758
6,"MAP3K10, construct: aa1-449 (from UniProt Q02779)",0.942
7,"EIF2AK1, construct: Full length (from UniProt Q9BQI3)",0.705
8,"PKN3, construct: Full length (from UniProt Q6P5Z2)",0.892

# Same assay, conditions: V fixed; at +2
row,Substance,relative phosphorylation
1,"MOK, construct: aa1-343 (from UniProt Q9UQ07)",0.551
2,"TTBK1, construct: Full length (from UniProt Q5TCY1)",1.18
3,"CHEK2, construct: Full length (from UniProt O96017)",0.875
4,"MAP4K3, construct: aa1-380 (from UniProt Q8IVH8)",0.428
5,"CAMK1, construct: Full length (from UniProt Q14012)",0.857
6,"MAP3K10, construct: aa1-449 (from UniProt Q02779)",0.635
7,"EIF2AK1, construct: Full length (from UniProt Q9BQI3)",0.903
8,"PKN3, construct: Full length (from UniProt Q6P5Z2)",0.753

# Same assay, conditions: V fixed; at +3
row,Substance,relative phosphorylation
1,"MOK, construct: aa1-343 (from UniProt Q9UQ07)",0.668
2,"TTBK1, construct: Full length (from UniProt Q5TCY1)",1.35
